Changes are numbered by the printed parent chain.
T1: recombinant human TL1A (human, UniProt O95150 71-251)
T1 construct: homotrimer; biotinylated for SPR capture; the ELISA paragraphs say only 'recombinant TL1A'; also called TNFSF15
T1 chain: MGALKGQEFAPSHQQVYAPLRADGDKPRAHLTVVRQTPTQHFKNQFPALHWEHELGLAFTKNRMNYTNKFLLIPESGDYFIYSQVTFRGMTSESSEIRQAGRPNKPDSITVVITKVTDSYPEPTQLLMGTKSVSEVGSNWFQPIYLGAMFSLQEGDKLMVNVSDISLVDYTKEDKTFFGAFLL

T2: recombinant human TL1A (human, UniProt O95150 71-251)
T2 construct: The ELISA method says only 'recombinant TL1A' coated on plates; homotrimeric cytokine; also called TNFSF15; recombinant TL1A
T2 chain: T1 chain

B1: TL1A-0012 (antibody, IgG1, V domains shown)
VH: QVQLVQSGAEVKKPGASVKVSCKASGYDFTYYGISWVRQAPGQGLEWMGWISTYNGNTHYADSLQGRVTMTTDTSTRTAYMELRSLRSDDTAVYYCARENYYGSGAYRGGMDVWGQGTTVTVSS
VL: EIVLTQSPATLSLSPGERATLSCRASQSVSSYLAWYQQKPGQAPRLLIYDASNRATGIPARFSGSGSGTDFTLTISSLEPEDFAVYYCQQRSNWPWTFGQGTKVEIKR
notes: IgG1/kappa variant of TL1A-0002
B2: TL1A-0291 (antibody, human IgG1, kappa, V domains shown)
VH: B1 VH with I34V, G56T, N57G, D62Q, S63K, R77S, N100S, Y107H
VL: DIQMTQSPSSLSASVGDRVTITCRASQSVSSYLAWYQQKPGKAPKLLIYDASNRATGVPSRFSGSGSGTDFTLTISSLQPEDFATYYCQQRSNWPWTFGQGTKVEIKR
notes: human IgG1 effector-function-minimized / human kappa
B3: TL1A-0293 (antibody, human IgG1, kappa, V domains shown)
VH: B1 VH with I34V, G56T, N57V, D62P, R77S, N100S, Y107H
VL: B2 VL
notes: as for B2
B4: TL1A-0022 (antibody, IgG1, V domains shown)
VH: B1 VH with T58E, D62R, S63M
VL: B1 VL
notes: as for B1
B5: TL1A-0294 (antibody, human IgG1, kappa, V domains shown)
VH: B1 VH with I34V, G56T, D62P, R77S, N100S, Y107F
VL: B2 VL
notes: as for B2
B6: TL1A-0026 (antibody, IgG1, V domains shown)
VH: B1 VH with T58E
VL: B1 VL
notes: as for B1
B7: TL1A-0019 (antibody, IgG1, V domains shown)
VH: B1 VH with Y60H, D62R, S63M
VL: B1 VL
notes: as for B1
B8: TL1A-0306 (antibody, human IgG1, kappa, V domains shown)
VH: B1 VH with S35G, G56T, N57V, D62P, R77S, N100S, Y107F
VL: B2 VL
notes: as for B2
B9: TL1A-0311 (antibody, V domains shown)
VH: B1 VH with S35G, N55G, D62P, R77S, N100S, Y107H
VL: B2 VL
notes: IgG1 effector-minimized/kappa
B10: TL1A-0023 (antibody, IgG1, V domains shown)
VH: B1 VH with T58D, D62P
VL: B1 VL
notes: as for B1
B11: TL1A-0021 (antibody, IgG1, V domains shown)
VH: B1 VH with T58D, D62R, S63M
VL: B1 VL
notes: as for B1
B12: TL1A-0310 (antibody, V domains shown)
VH: B1 VH with S35G, N55G, D62P, R77S, N100S, Y107F
VL: B2 VL
notes: IgG1 effector-minimized/kappa
B13: TL1A-0290 (antibody, V domains shown)
VH: B1 VH with I34V, G56T, N57G, D62Q, S63K, R77S, N100S, Y107F
VL: B2 VL
notes: IgG1 effector-minimized/kappa
B14: TL1A-0300 (antibody, V domains shown)
VH: B1 VH with S35G, G56D, D62Q, S63K, R77S, N100S, Y107F
VL: B2 VL
notes: IgG1 effector-minimized/kappa
B15: TL1A-0289 (antibody, human IgG1, kappa, V domains shown)
VH: B1 VH with I34V, G56T, N57G, D62P, R77S, N100S, Y107H
VL: B2 VL
notes: as for B2
B16: TL1A-0287 (antibody, human IgG1, kappa, V domains shown)
VH: B1 VH with I34V, G56D, D62Q, S63K, R77S, N100S, Y107H
VL: B2 VL
notes: as for B2
B17: TL1A-0301 (antibody, V domains shown)
VH: B1 VH with S35G, G56D, D62Q, S63K, R77S, N100S, Y107H
VL: B2 VL
notes: IgG1 effector-minimized/kappa
B18: TL1A-0013 (antibody, IgG1, V domains shown)
VH: B1 VH with D62P
VL: B1 VL
notes: as for B1
B19: TL1A-0305 (antibody, human IgG1, kappa, V domains shown)
VH: B1 VH with S35G, G56T, N57G, D62Q, S63K, R77S, N100S, Y107H
VL: B2 VL
notes: as for B2
B20: TL1A-0324 (antibody, human IgG1, kappa, V domains shown)
VH: B1 VH with G56T, D62R, S63M, R77S, N100S
VL: B2 VL
notes: as for B2
B21: TL1A-0024 (antibody, IgG1, V domains shown)
VH: B1 VH with T58E, D62P
VL: B1 VL
notes: as for B1
B22: TL1A-0298 (antibody, V domains shown)
VH: B1 VH with S35G, G56D, D62P, R77S, N100S, Y107F
VL: B2 VL
notes: IgG1 effector-minimized/kappa
B23: TL1A-0299 (antibody, V domains shown)
VH: B1 VH with S35G, G56D, D62P, R77S, N100S, Y107H
VL: B2 VL
notes: IgG1 effector-minimized/kappa
B24: TL1A-0304 (antibody, human IgG1, kappa, V domains shown)
VH: B1 VH with S35G, G56T, N57G, D62Q, S63K, R77S, N100S, Y107F
VL: B2 VL
notes: as for B2
B25: TL1A-0307 (antibody, human IgG1, kappa, V domains shown)
VH: B1 VH with S35G, G56T, N57V, D62P, R77S, N100S, Y107H
VL: B2 VL
notes: as for B2
B26: TL1A-0292 (antibody, human IgG1, kappa, V domains shown)
VH: B1 VH with I34V, G56T, N57V, D62P, R77S, N100S, Y107F
VL: B2 VL
notes: as for B2
B27: TL1A-0295 (antibody, human IgG1, kappa, V domains shown)
VH: B1 VH with I34V, G56T, D62P, R77S, N100S, Y107H
VL: B2 VL
notes: as for B2
B28: TL1A-0014 (antibody, IgG1, V domains shown)
VH: B1 VH with D62Q, S63K
VL: B1 VL
notes: as for B1
B29: TL1A-0027 (antibody, IgG1, V domains shown)
VH: B1 VH with T53A, H59N, D62Q, S63K
VL: B1 VL
notes: as for B1
B30: TL1A-0308 (antibody, human IgG1, kappa, V domains shown)
VH: B1 VH with S35G, G56T, D62P, R77S, N100S, Y107F
VL: B2 VL
notes: as for B2
B31: TL1A-0297 (antibody, V domains shown)
VH: B1 VH with I34V, N55G, D62P, R77S, N100S, Y107H
VL: B2 VL
notes: IgG1 effector-minimized/kappa
B32: TL1A-0296 (antibody, V domains shown)
VH: B1 VH with I34V, N55G, D62P, R77S, N100S, Y107F
VL: B2 VL
notes: IgG1 effector-minimized/kappa
B33: TL1A-0309 (antibody, human IgG1, kappa, V domains shown)
VH: B1 VH with S35G, G56T, D62P, R77S, N100S, Y107H
VL: B2 VL
notes: as for B2
B34: TL1A-0303 (antibody, human IgG1, kappa, V domains shown)
VH: B1 VH with S35G, G56T, N57G, D62P, R77S, N100S, Y107H
VL: B2 VL
notes: as for B2
B35: TL1A-0288 (antibody, human IgG1, kappa, V domains shown)
VH: B1 VH with I34V, G56T, N57G, D62P, R77S, N100S, Y107F
VL: B2 VL
notes: as for B2
B36: TL1A-0302 (antibody, V domains shown)
VH: B1 VH with S35G, G56T, N57G, D62P, R77S, N100S, Y107F
VL: B2 VL
notes: IgG1 effector-minimized/kappa

Assays:
recombinant human TL1A [1] = target: T1, recombinant human TL1A; assay: competition ELISA vs bio-TL1A-0002
Description: (§1) For this competition ELISA assay procedure, 96-well high binding plates (Corning, product number 3590) were coated with 1 μg/mL recombinant TL1A in 100 μL/well in Phospate Buffered Saline (PBS) overnight at 4° C. Plates were then blocked in PBS+0.02% casein solution and washed with PBS+0.05% Tween-20 following standard ELISA protocol. […] Plates were washed with PBS+0.05% Tween-20 following standard ELISA protocol, and Streptavidin-HRP (Southern Biotech, product number 7100-05) diluted to 1:10,000 in assay buffer was added to plates and incubated for 25-30 minutes at room temperature. Next, the plates were washed with PBS+0.05% Tween-20 following standard ELISA protocol, and then TMB substrate (BioFX Laboratories, catalog number TMBW-0100-01) was added to plates. Reactions were stopped after approximately 5 minutes by adding 0.18 M ortho-phosphoric acid to each well and absorbance was read at 450 nm.

recombinant human TL1A [2] = target: T2, recombinant human TL1A; assay: competition ELISA on coated recombinant TL1A; competitor biotinylated TL1A-0002
Description: as §1

Row | Binder | Bioactivity relative to TL1A-0002 (recombinant human TL1A [1]) [fold] | IC50 (recombinant human TL1A [1]) [nM] | Bioactivity relative to TL1A-0002 (recombinant human TL1A [2]) [fold] | IC50 (recombinant human TL1A [2]) [nM]
1 | B1 | 1.1 | 5 | – | –
2 | B2 | – | – | 1.8 | 9
3 | B3 | – | – | 1.9 | 9.7
4 | B4 | 1.5 | 6.9 | – | –
5 | B5 | – | – | 1.6 | 8
6 | B6 | 2 | 8.9 | – | –
7 | B7 | 1.1 | 5 | – | –
8 | B8 | – | – | 3.1 | 15.8
9 | B9 | – | – | 6 | 30.2
10 | B10 | 1.3 | 5.6 | – | –
11 | B11 | 1.3 | 6 | – | –
12 | B12 | – | – | 14.8 | 74.7
13 | B13 | – | – | 4.2 | 21
14 | B14 | – | – | 4.7 | 23.8
15 | B15 | – | – | 1.6 | 7.9
16 | B16 | – | – | 2 | 10.1
17 | B17 | – | – | 4.9 | 24.7
18 | B18 | 1.2 | 5.5 | – | –

Row | Binder | Bioactivity relative to TL1A-0002 (recombinant human TL1A [1]) [fold] | IC50 (recombinant human TL1A [1]) [nM] | Bioactivity relative to TL1A-0002 (recombinant human TL1A [2]) [fold] | IC50 (recombinant human TL1A [2]) [nM]
19 | B19 | – | – | 2.9 | 14.5
20 | B20 | – | – | 1.2 | 6.1
21 | B21 | 1.2 | 5.4 | – | –
22 | B22 | – | – | 5 | 25.3
23 | B23 | – | – | 4.5 | 22.9
24 | B24 | – | – | 3 | 14.9
25 | B25 | – | – | 3.4 | 17.2
26 | B26 | – | – | 1.9 | 9.6
27 | B27 | – | – | 2.4 | 12.3
28 | B28 | 1.1 | 5.1 | – | –
29 | B29 | 1.9 | 8.3 | – | –
30 | B30 | – | – | 2.8 | 14.2
31 | B31 | – | – | 14.5 | 73.1
32 | B32 | – | – | 17.3 | 87.3
33 | B33 | – | – | 3.3 | 16.8
34 | B34 | – | – | 3 | 15
35 | B35 | – | – | 1.6 | 8
36 | B36 | – | – | 4 | 20.4

Source: patent US20240059799A1 (Pfizer, published 2024)
